The RNAGym collection of RNA variant scans (doi:10.7554/elife.90254)

B1: OR4K15 (parent)
chain: GUUAACGGUCAUAGGCCAUGGAAACUAGGAGCACCAUUUCGCUGCCAGUGAAGAAAUGAACAAAGAAAAUCUGGGCCAGGCAGGCAUCAAAAGAAAUAGUCUUGCGCUCAACCAGAAAGUCUGUAAUCAUUUUAAGGGUA

Variants of: B1
Experiment: self-cleavage, relative activity (ratio to wild type); higher = more cleavage; in vitro, sequencing; the parent is a self-cleaving ribozyme

Variant | self-cleavage
A64U C77U | 1.56
A86U A110C | 0.36
A69G | 1.16
A36U A56G | 1.46
A18G U103A | 1.13
U43A U49A | 0.87
A4C | 0.61
U100C U131C | 2.14
A11G A22U | 1.75
U102G U130A | 0.29
A33U U57C | 0.68
A36U U43C | 2.05
A4G A135G | 1.18
C17U A129G | 0.43
C6U U102C | 0.35
A96U U102C | 2.54
G8C A52C | 2.89
A62G A90U | 0.76
A86U A114U | 0.11
A13U C105U | 0.23
A82G U102C | 1.16
U9G A92G | 1.15
G7C A23G | 0.73
U100C A118U | 0.77

Variant | self-cleavage
A96G U100C | 2.42
A11C U127C | 0.83
U43A U108C | 0.02
G21U A118G | 1.98
G53U A82U | 0.27
U12C U131C | 1.28
A22C A114U | 0.08
U120G U130C | 1.46
U19C U132A | 1.89
C105U | 0.16
G14C U127C | 1.15
U49C G73A | 0.28
A22U A62G | 1.98
A110G | 0.13
C6U A62G | 0.56
A54U A96G | 1.68
A5U G104A | 0.09
U49C A117G | 1.68
C16U A78G | 0.62
U127C U132G | 1.62
A67G C107A | 0.04
A69U U97A | 2.51
U57C A96G | 1.17
U87C U102C | 2.08

Variant | self-cleavage
C71A U97C | 0.18
A114G U120C | 0.18
A4G A117G | 1.18
U49A U72A | 0.36
A91G U124A | 1.78
A68U U103A | 0.3
A30G C32U | 0.93
A94U C107U | 0.01
A92G A117G | 1.47
A98G A140G | 0.69
A51G A118U | 0.39
A110U A117C | 0.29
A95C A110G | 0.16
A5G A114U | 0.04
A4G A68G | 0.87
A86U U132C | 1.71
A11U A78G | 0.31
A117C U139C | 0.68
A69G A117U | 0.97
A86G A94G | 1.47
A52C U103A | 0.98
U3A A92G | 1.3
A95G U139G | 2.68
A5G A78C | 0.62

Variant | self-cleavage
A13C A135G | 1.04
A18U G79A | 0.05
C40A A60G | 1.56
A68G A69G | 0.87
U12A C34U | 0.53
A78G A89U | 0.24
U37C A95G | 2.37
G79U A135G | 0.02
A94G U130C | 1.16
A5G G83A | 1.54
A60G A116G | 0.5
A11G G119A | 2.11
U2G A23G | 0.75
A66G A118G | 2.17
A5G G21U | 0.96
U72A U127G | 0.23
C42U A66G | 1.64
A30G G53C | 1.95
U139C A140G | 1.57
A95G U103G | 0.06
A63G A91U | 2.36
C16G A89G | 0.74
A27G U132C | 0.79
C35U A64G | 1

Variant | self-cleavage
U72A C101U | 0.04
U122C G137C | 1.67
A56C A82G | 0.56
A13G A30U | 1.14
A69G G79U | 0.1
A24G G138A | 1.18
A13G A69G | 0.92
A24G A66U | 1.11
U108C U127A | 0.01
C40U A62C | 1.11
C81A U122C | 0.22
A22G A63C | 1.25
A54G U97C | 1.37
A24U A114C | 0.04
A63G C107U | 0.01
A51C G73C | 0
U19A A66U | 1.07
A22U A59U | 1.71
A22G G48U | 0.9
A33U U130C | 2
U9C A86U | 1.74
C77U G80A | 0.37
A86U A117G | 2.1
U102C A134G | 1.14

Variant | self-cleavage
A11G A89G | 0.59
A23G C40U | 1.37
A5G C101A | 0.25
A13G U26C | 0.93
U87C C113A | 0.01
U9C U124C | 1.25
U72C A82G | 0.3
U9C G48A | 0.64
G7U A68G | 2.39
U57C A117G | 0.84
A86G A129G | 0.22
U70C U103C | 0.56
U26A A89G | 1.53
U43G A114U | 0.1
G14A C71U | 0.37
A18U A135G | 1.36
A36U U72G | 0.29
A92C U124C | 0.52
A36G A62C | 1.51
C17U A47U | 1.43
A33G U120C | 0.53
U9C A23G | 1.02
A4U A114U | 0.22
U57A A114U | 0.03

Variant | self-cleavage
U103C A140U | 1.14
A18G U39A | 1.96
A90G G119A | 0.36
U3A A22G | 1.2
A63G A116C | 0.13
U72C U102C | 0.36
A82G A114G | 0.08
U9G U130C | 0.7
A94G U103A | 0.39
G41C A86U | 0.57
A11C U102C | 1.91
C109U C128A | 0.12
A24G A98U | 1.74
A59U A68G | 1.43
A18G A118U | 0.64
A114U U127A | 0.03
U108A U130G | 0
G80U G123A | 0.14
A51G U87C | 0.86
A62G A69U | 1.87
A68G U72A | 0.26
A63U U122C | 1.57
A11U U49G | 1.14
